One assay concerns endogenous PKCθ. Description: IS localization in OT-II CD4+ T cells conjugated with Ova-loaded APCs (confocal). The format is cell-based, mouse. Particulars: OT-II TCR-Tg CD4+ T cells. On the procedure:
(FIG. 6A) OT-II CD4^+ T cells were infected with retrovirus expressing Myc-tagged V3 domain, V3 mutated at P330/1/4/6A (V3-4PA), or PR motif-deleted V3 (V3-ΔPR). Infected cells (green) were harvested, stimulated, and fixed. Conjugates were stained with anti-Myc plus a secondary Alexa 555-coupled antibody (orange), and anti-PKCθ plus a secondary Alexa 647-coupled antibody (red). Cells were analyzed as in FIG. 1A. (FIG. 6B) Quantitative analysis of the results shown in (FIG. 6A) from 30-50 T-APC conjugates. ** p<0.05. (FIG. 6C) MCC-specific T hybridoma cells were cotransfected with indicated vector, together with RE/AP-Luc and β-Gal reporter plasmids. Cells were stimulated and analyzed as in FIG. 1C. (FIG. 6D) Naïve CD4^+ T cells from B6 mice stimulated with anti-CD3 plus anti-CD28 mAbs and differentiated in vitro under Th1-, Th2- or Th17-polarizing conditions were retrovirally transduced with empty pMIG vector, or with the indicated PKCθ V3 vectors. Cytokine-producing cells were analyzed by intracellular staining 8 h after restimulation. Right panels represent cumulative data showing percentage of cytokine-producing cells by intracellular staining. (FIG. 6E) MCC-specific T hybridoma cells were cotransfected with the indicated plasmids, together with NFAT luciferase reporter and a β-Gal reporter plasmid. Cells were incubated with fibroblasts that express I-E^K and B7-1 in the absence or presence of MCC peptide for 6 hrs. Normalized luciferase activity was determined in triplicates.
Full-length human PKCθ and its derivatives were cloned as a GFP fusion protein in the pMX retroviral vector. Retroviral supernatants were used to infect preactivated CD4^+ T cells from PKCθ^−/− or WT OT-II mice. Transduced cells were rested for an additional three days. On the day of experiment, APC were prepared from WT B6 splenocytes that were depleted of CD4^+ T cells using anti-CD4 (L3T4) mAb-coated beads. T-depleted APC were stained with 20 μM of cell tracker blue (CMAC) and then pulsed with 5 μM Ova peptide, respectively, for 30 min at 37° C. T cell-APC conjugation was carried out at 37° C. for 20 min before fixation with 4% paraformaldehyde and permeabilization with PBS supplemented with 1% BSA and 0.1% Triton X-100. […] Immunofluorescene images were captured using a Marianas digital fluorescence-microscopy system (Intelligent Imaging Innovations) as described (Becart, S. et al. Immunity 29, 704-719 (2008)).
Given the critical role of the PKCθ V3 domain in the enzyme's CD28 association, IS localization, and activation of downstream targets, ectopic expression of the isolated V3 domain was analyzed for interference with the localization and function of PKCθ in stimulated T cells. […]

The test system of assay [1] is Naïve CD4+ T cells from B6 mice, Treg (FoxP3+) cells. Description: In vitro Treg (FoxP3+) differentiation of retrovirally transduced CD4+ T cells. The format is cell-based, mouse. Particulars: Treg-polarizing conditions (IL-2+TGFβ), GFP+FoxP3+ cells. On the procedure: Naïve CD4+ T cells from B6 mice stimulated with anti-CD3 plus anti-CD28 mAbs and differentiated in vitro under Treg-polarizing conditions (IL-2+TGFβ) were retrovirally transduced with empty pMIG vector, or with the indicated PKCθ V3 vectors. Transduced (GFP+) cells were sorted and FoxP3+ cells were analyzed by intracellular staining.
Naïve CD4^+ T cells from B6 mice stimulated with anti-CD3 plus anti-CD28 mAbs and differentiated in vitro under Treg-polarizing conditions (IL-2+TGFβ) were retrovirally transduced with empty pMIG vector, or with the indicated PKCθ V3 vectors. Transduced (GFP+) FoxP3+ cells were analyzed by intracellular staining 8 hours after restimulation. Right panels represent cumulative data showing percentage of GFP+FoxP3+ cells by intracellular staining.

Assay [2] deals with Th2-mediated lung inflammation. The experiment in a line: Th2-mediated Ova-induced airway inflammation after adoptive transfer of transduced OT-II Th2 cells. The format is in vivo, mouse. To be noted: transferred Th2 cells, aerosolized Ova 3 consecutive days. From the text: (FIG. 7A-7D) OT-II CD4^+ T cells stimulated with anti-CD3 plus anti-CD28 mAbs and differentiated in vitro under Th2 (FIG. 7A-7C) or Th1 (FIG. 7D, 7E)-polarizing conditions were retrovitrally transduced with the same PKCθ V3 vectors as in FIG. 6. Sorted GFP^+ populations were adoptively transferred into naïve B6 mice, which were challenged with aerosolized Ova for 3 consecutive days. BAL fluid were obtained 1 d post-challenge and analyzed for total mononuclear cell infiltration (FIG. 7A, 7D) and cytokine expression using IL-4 (FIG. 7B), IL-5 (FIG. 7C) and IFN-γ (FIG. 7E) ELISA.
CD4^+ T cells from OT-II B6 mice were isolated and cultured with plate-bound anti-CD3 (5 μg/ml), soluble anti-CD28 (2.5 μg/ml) and IL-2 (100 U/ml) under Th1 or Th2 polarizing conditions. The cells were retrovirally infected on days 2-4 and cultured for an additional 3 days. GFP^+ cells were sorted, and 1×10^6 cells were injected intravenously into naïve WT B6 mice. One day later, mice received aerosolized Ova (5 mg/ml in 20 ml PBS) for 30 min, once a day for 3 consecutive days, using ultrasonic nebulization. Mice were sacrificed 24 h after the last challenge and assessed for lung inflammation. Collection of BAL fluid and determination of cytokine levels were carried out as described (Salek-Ardakani, S. et al. J Immunol 173, 6440-6447 (2004)).
The above findings were extended to an in vivo antigen-specific inflammatory response in an airway inflammation model, using a T cell adoptive transfer system. Mice receiving OT-II Th2 cells transduced with an empty vector developed an inflammatory response by comparison with PBS-challenged control mice, as evidenced by a significant increase in the number of infiltrating leukocytes in the bronchoalveolar lavages (BAL) fluid (FIG. 7a) and in the levels of signature Th2 cytokines, IL-4 (FIG. 7b) and IL-5 (FIG. 7c).

B1: V3-4PA: V3 mutated at P330/1/4/6A (4 Pro residues in the Pro-rich motif to Ala) (protein)
chain: MSPFLRIGLSNFDCGSCQSCQGEAVNPYCAVLVKEYVESENGQMYIQKKPTMYPPWDSTFDAHINKGRVMQIIVKGKNVDLISETTVELYSLAERCRKNNGKTEIWLELKPQGRMLMNARYFLEMSDTKDMNEFETEGFFALHQRRGAIKQAKVHHVKCHEFTATFFPQPTFCSVCHEFVWGLNKQGYQCRQCNAAIHKKCIDKVIAKCTGSAINSRETMFHKERFKIDMPHRFKVYNYKSPTFCEHCGTLLWGLARQGLKCDACGMNVHHRCQTKVANLCGINQKLMAEALAMIESTQQARCLRDTEQIFREGPVEIGLPCSIKNEARAACLATAGKREPQGISWESPLDEVDKMCHLPEPELNKERPSLQIKLKIEDFILHKMLGKGSFGKVFLAEFKKTNQFFAIKALKKDVVLMDDDVECTMVEKRVLSLAWEHPFLTHMFCTFQTKENLFFVMEYLNGGDLMYHIQSCHKFDLSRATFYAAEIILGLQFLHSKGIVYRDLKLDNILLDKDGHIKIADFGMCKENMLGDAKTNTFCGTPDYIAPEILLGQKYNHSVDWWSFGVLLYEMLIGQSPFHGQDEEELFHSIRMDNPFYPRWLEKEAKDLLVKLFVREPEKRLGVRGDIRQHPLFREINWEELERKEIDPPFRPKVKSPFDCSNFDKEFLNEKPRLSFADRALINSMDQNMFRNFSFMNPGMERLIS
Regarding B1, in the assay on endogenous PKCθ, the “effect on IS localization of endogenous PKCθ” value is “did not interfere with the IS localization of endogenous PKCθ” and the “subcellular localization of the transduced V3 protein” value is “did not localize anymore in the IS”. Also, the “promotion of Treg differentiation” value in assay [1] is reported as “not”. Besides, the “inhibition of the Th2 inflammatory response” value in assay [2] is “partially rescued the inhibition”.

The values are drawn from patent US20180335433A1, “COMPOSITIONS TARGETING PKC-THETA AND USES AND METHODS OF TREATING PKC-THETA PATHOLOGIES, ADVERSE IMMUNE RESPONSES AND DISEASES” (La Jolla Institute for Allergy and Immunology, priority 2011, published 2018).
